Data from article PMC12290011, “Pseudomonadal itaconate degradation gene cluster encodes enzymes for methylsuccinate utilization” (Communications Biology, 2025).

Key:
[1] = molecular target: T1, Pa. xenovorans MmgE/PrpD family protein Bxe_B2582 (Paraburkholderia xenovorans, UniProt Q13R78); assay: coupled assay with C. necator itaconate CoA transferase, UHPLC; assay type: biochemical; conditions: 2.5 mM substrate, pH 7.0, 5 mM MgCl2, 30 °C
T1 construct: pET16b, His-tagged, E. coli BL21(DE3), Ni-NTA purified
T1 sequence (Q13R78 1-494): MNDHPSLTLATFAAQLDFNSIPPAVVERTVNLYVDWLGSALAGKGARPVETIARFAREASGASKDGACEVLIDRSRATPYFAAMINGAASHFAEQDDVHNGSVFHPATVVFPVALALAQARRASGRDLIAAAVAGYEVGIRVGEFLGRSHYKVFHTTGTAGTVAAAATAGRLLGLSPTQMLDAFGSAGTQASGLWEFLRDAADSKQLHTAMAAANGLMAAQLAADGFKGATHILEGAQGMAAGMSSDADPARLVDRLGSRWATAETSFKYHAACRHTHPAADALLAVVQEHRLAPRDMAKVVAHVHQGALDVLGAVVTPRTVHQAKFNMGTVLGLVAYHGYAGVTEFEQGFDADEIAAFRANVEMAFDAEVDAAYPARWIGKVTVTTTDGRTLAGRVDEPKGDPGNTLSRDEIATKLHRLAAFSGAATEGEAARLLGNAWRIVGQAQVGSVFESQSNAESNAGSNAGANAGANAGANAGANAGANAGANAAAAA

[2] = molecular target: T2, P. aeruginosa MmgE/PrpD family protein, (S)-(R)-methylsuccinate isomerase (Pseudomonas aeruginosa, UniProt Q9I564); assay: as above; assay type: biochemical; conditions: 2.5 mM substrate, pH 7.0, 5 mM MgCl2, 30 °C
T2 construct: gene PA0881; synthetic codon-optimized gene in pET16b, His-tagged, E. coli BL21(DE3), Ni-NTA purified
T2 sequence (Q9I564 1-450): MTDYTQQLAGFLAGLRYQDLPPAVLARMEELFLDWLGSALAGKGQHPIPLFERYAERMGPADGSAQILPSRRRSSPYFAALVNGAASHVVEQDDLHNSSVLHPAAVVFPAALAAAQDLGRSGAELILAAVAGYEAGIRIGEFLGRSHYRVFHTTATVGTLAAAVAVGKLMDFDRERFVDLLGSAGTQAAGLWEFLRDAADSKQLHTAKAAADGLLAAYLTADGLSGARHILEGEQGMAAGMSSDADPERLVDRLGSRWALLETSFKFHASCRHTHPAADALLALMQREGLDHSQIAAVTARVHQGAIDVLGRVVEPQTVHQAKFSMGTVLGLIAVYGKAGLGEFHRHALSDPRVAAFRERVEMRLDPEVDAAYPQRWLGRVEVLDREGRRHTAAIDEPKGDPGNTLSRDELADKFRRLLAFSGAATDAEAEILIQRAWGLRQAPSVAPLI

[3] = molecular target: T3, C. necator MmgE/PrpD family protein, (S)-(R)-methylsuccinate isomerase (Cupriavidus necator, UniProt Q0K3E6); assay: as above; assay type: biochemical; conditions: 2.5 mM substrate, pH 7.0, 5 mM MgCl2, 30 °C
T3 construct: gene prpD2; synthetic codon-optimized gene in pET16b, His-tagged, E. coli BL21(DE3), Ni-NTA purified
T3 sequence (Q0K3E6 1-460): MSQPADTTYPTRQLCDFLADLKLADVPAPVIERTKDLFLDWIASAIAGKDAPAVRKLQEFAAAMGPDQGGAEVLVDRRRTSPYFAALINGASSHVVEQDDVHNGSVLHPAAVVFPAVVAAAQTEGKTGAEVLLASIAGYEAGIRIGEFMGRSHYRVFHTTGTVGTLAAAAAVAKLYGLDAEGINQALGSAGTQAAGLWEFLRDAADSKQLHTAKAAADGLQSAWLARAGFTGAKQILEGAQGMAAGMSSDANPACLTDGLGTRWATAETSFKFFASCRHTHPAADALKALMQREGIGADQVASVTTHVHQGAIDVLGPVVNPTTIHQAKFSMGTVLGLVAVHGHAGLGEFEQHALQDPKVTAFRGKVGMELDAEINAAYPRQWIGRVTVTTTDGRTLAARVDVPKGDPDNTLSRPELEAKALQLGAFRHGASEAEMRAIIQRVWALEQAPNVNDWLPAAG

C=C(CC(=O)O)C(=O)O = assay: purified protein; conditions: 1 mM succinyl-CoA, pH 7.0, 5 mM MgCl2, 30 °C
From the text: (§4) UHPLC assay of CoA-esters on P. aeruginosa itaconate CoA transferase
C[C@@H](CC(=O)O)C(=O)O = assay: purified protein; conditions: 1 mM succinyl-CoA, pH 7.0, 5 mM MgCl2, 30 °C
From the text: as §4
C[C@H](CC(=O)O)C(=O)O = assay: purified protein; conditions: 1 mM succinyl-CoA, pH 7.0, 5 mM MgCl2, 30 °C
From the text: as §4

[4] = substrate: C[C@@H](CC(=O)SCCNC(=O)CCNC(=O)[C@H](O)C(C)(C)COP(=O)(O)OP(=O)(O)OC[C@H]1O[C@@H](n2cnc3c(N)ncnc32)[C@H](O)[C@@H]1OP(=O)(O)O)C(=O)O; assay: UHPLC assay of mesaconyl-CoA formation; assay type: biochemical, Pseudomonas aeruginosa; conditions: 1 mM phenazine methosulfate as electron acceptor, pH 7.0, 5 mM MgCl2, 30 °C
From the text: (§1) UHPLC assay of mesaconyl-CoA formation on P. aeruginosa methylsuccinyl-C4-CoA dehydrogenase

[5] = substrate: C[C@H](CC(=O)SCCNC(=O)CCNC(=O)[C@H](O)C(C)(C)COP(=O)(O)OP(=O)(O)OC[C@H]1O[C@@H](n2cnc3c(N)ncnc32)[C@H](O)[C@@H]1OP(=O)(O)O)C(=O)O; assay: UHPLC assay of mesaconyl-CoA formation; assay type: biochemical, Pseudomonas aeruginosa; conditions: 1 mM phenazine methosulfate as electron acceptor, pH 7.0, 5 mM MgCl2, 30 °C
From the text: as §1

[6] = substrate: C[C@@H](CC(=O)SCCNC(=O)CCNC(=O)[C@H](O)C(C)(C)COP(=O)(O)OP(=O)(O)OC[C@H]1O[C@@H](n2cnc3c(N)ncnc32)[C@H](O)[C@@H]1OP(=O)(O)O)C(=O)O; assay: UHPLC assay of mesaconyl-CoA formation; assay type: biochemical, Cupriavidus necator; conditions: 1 mM phenazine methosulfate as electron acceptor, pH 7.0, 5 mM MgCl2, 30 °C
From the text: (§2) UHPLC assay of mesaconyl-CoA formation on C. necator methylsuccinyl-C4-CoA dehydrogenase

[7] = substrate: C[C@H](CC(=O)SCCNC(=O)CCNC(=O)[C@H](O)C(C)(C)COP(=O)(O)OP(=O)(O)OC[C@H]1O[C@@H](n2cnc3c(N)ncnc32)[C@H](O)[C@@H]1OP(=O)(O)O)C(=O)O; assay: UHPLC assay of mesaconyl-CoA formation; assay type: biochemical, Cupriavidus necator; conditions: 1 mM phenazine methosulfate as electron acceptor, pH 7.0, 5 mM MgCl2, 30 °C
From the text: as §2

purified protein = substrate: O=C(O)C[C@H](O)C(=O)O; assay: purified protein; conditions: 1 mM succinyl-CoA, pH 7.0, 5 mM MgCl2, 30 °C
[8] = substrate: C=C(CC(=O)O)C(=O)O; assay: UHPLC assay of CoA-esters; assay type: biochemical, Cupriavidus necator; conditions: 1 mM succinyl-CoA, pH 7.0, 5 mM MgCl2, 30 °C
From the text: (§3) UHPLC assay of CoA-esters on C. necator itaconate CoA transferase

[9] = substrate: CC(C)(COP(=O)(O)OP(=O)(O)OC[C@H]1O[C@@H](n2cnc3c(N)ncnc32)[C@H](O)[C@@H]1OP(=O)(O)O)[C@@H](O)C(=O)NCCC(=O)NCCSC(=O)CCC(=O)O; assay: UHPLC assay of CoA-esters; assay type: biochemical, Cupriavidus necator; conditions: 10 mM itaconate, pH 7.0, 5 mM MgCl2, 30 °C
From the text: as §3

[10] = substrate: C[C@@H](CC(=O)O)C(=O)O; assay: UHPLC assay of CoA-esters; assay type: biochemical, Cupriavidus necator; conditions: 1 mM succinyl-CoA, pH 7.0, 5 mM MgCl2, 30 °C
From the text: as §3

[11] = substrate: C[C@H](CC(=O)O)C(=O)O; assay: UHPLC assay of CoA-esters; assay type: biochemical, Cupriavidus necator; conditions: 1 mM succinyl-CoA, pH 7.0, 5 mM MgCl2, 30 °C
From the text: as §3

[12] = substrate: C[C@](O)(CC(=O)O)C(=O)O; assay: UHPLC assay of CoA-esters; assay type: biochemical, Cupriavidus necator; conditions: 1 mM succinyl-CoA, pH 7.0, 5 mM MgCl2, 30 °C
From the text: as §3

[13] = substrate: O=C(O)CCCC(=O)O; assay: UHPLC assay of CoA-esters; assay type: biochemical, Cupriavidus necator; conditions: 1 mM succinyl-CoA, pH 7.0, 5 mM MgCl2, 30 °C
From the text: as §3

C[C@@H](CC(=O)O)C(=O)O [(S)-Methylsuccinate]
coupled assay with C. necator itaconate CoA transferase, UHPLC [1]: we tested the isomerase activity of the Pa. xenovorans MmgE/PrpD family protein Bxe_B2582
coupled assay with C. necator itaconate CoA transferase, UHPLC [2]: both MmgE/PrpD proteins catalyzed the isomerization of (S)-methylsuccinate to (R)-methylsuccinate
coupled assay with C. necator itaconate CoA transferase, UHPLC [3]: both MmgE/PrpD proteins catalyzed the isomerization of (S)-methylsuccinate to (R)-methylsuccinate

C[C@H](CC(=O)O)C(=O)O [(R)-Methylsuccinate]
coupled assay with C. necator itaconate CoA transferase, UHPLC [1]: we tested the isomerase activity of the Pa. xenovorans MmgE/PrpD family protein Bxe_B2582
coupled assay with C. necator itaconate CoA transferase, UHPLC [2]: both MmgE/PrpD proteins catalyzed the isomerization of (S)-methylsuccinate to (R)-methylsuccinate
coupled assay with C. necator itaconate CoA transferase, UHPLC [3]: both MmgE/PrpD proteins catalyzed the isomerization of (S)-methylsuccinate to (R)-methylsuccinate

P. aeruginosa itaconate CoA transferase (Pseudomonas aeruginosa PAO1)
Km (C=C(CC(=O)O)C(=O)O): 800 ± 300 µM
Vmax (C=C(CC(=O)O)C(=O)O): 73 µmol/min/mg
kcat/Km (C=C(CC(=O)O)C(=O)O): 66300 M⁻¹ s⁻¹
Km (C[C@@H](CC(=O)O)C(=O)O): 17800 ± 8000 µM
Vmax (C[C@@H](CC(=O)O)C(=O)O): 54.3 µmol/min/mg
kcat/Km (C[C@@H](CC(=O)O)C(=O)O): 2200 M⁻¹ s⁻¹
Km (C[C@H](CC(=O)O)C(=O)O): 600 ± 200 µM
Vmax (C[C@H](CC(=O)O)C(=O)O): 69.8 µmol/min/mg
kcat/Km (C[C@H](CC(=O)O)C(=O)O): 88000 M⁻¹ s⁻¹

B1: P. aeruginosa methylsuccinyl-C4-CoA dehydrogenase (Pseudomonas aeruginosa PAO1) (protein)
chain: MNPNSEELNAIREGVRALCAEFDAAYWRRIDEQRGFPEAFVKALTDAGWLSAMIPEEYGGSGLGLAEASVILEEVNRCGGNSGTVHGQMYNMFTLLRNGSEAQKRFYLPKLASGELRLQSMGVTEPTTGTDTTKIKTTAVRKGDRYVINGQKVWISRIQHSDLMILLARTTPLAEVKRKSEGMSIFLVDLREAIGKGLTVQPIANMVNHETNELFFDNLEIPADSLIGEEGKGFRYILDGLNAERTLIAAECIGDGRWFIDKASHYARDRVVFGRPIGQNQGVQFPIAEAHIEVEAADLMRWRACQEYDAGLNAGASANMAKYLAAKASWEAANACLQTHGGFGFACEYDVERKFRETRLYQVAPISTNLILSYVAEHLLELPRSF
notes: synthetic codon-optimized gene in pET23a, His-tagged, E. coli BL21(DE3), Ni-NTA purified with FAD in buffers
Km [4]: 470 ± 130 µM
Vmax [4]: 2.8 µmol/min/mg
kcat/Km [4]: 4300 M⁻¹ s⁻¹
Km [5]: 590 ± 140 µM
Vmax [5]: 3.38 µmol/min/mg
kcat/Km [5]: 4100 M⁻¹ s⁻¹

B2: C. necator methylsuccinyl-C4-CoA dehydrogenase (Cupriavidus necator H16) (protein)
chain: MHAHQDPDQLYPEIREAVRDLCAGFDSAYWQRVEEQNAFPETFVQALTQAGWLSALIPEAYGGSGLSLTAASVIMEEINRSGGNSGACHGQMYVMGCLLRHGSEAQKQRWLPGIASGELRMQSMAVTEPTTGTDTTKLKTTAVRQGDKYIVNGQKVWISRVQHSDLMLLLARTTPLDQVKRKSEGLSVFVVDLRDAIGKGLTVKPIRNMVNHETNELFFDNLEVPAGNLIGEEGKGLKYILDGLNAERILIAAECIGDGYWFVERASNYARDRIVFDRPIGQNQAVQFPIARSYINVEAASLMRYKASQLFDAGKPCGKEANISKLLAADASWEAANVCLQTHGGFGFAAEYDIERKFRETRLYQVAPISTNLILSYVAEHVLELPRSF
notes: pET23b, His-tagged, E. coli BL21(DE3), Ni-NTA purified with FAD in buffers
Km [6]: 420 ± 140 µM
Vmax [6]: 0.69 µmol/min/mg
kcat/Km [6]: 1200 M⁻¹ s⁻¹
Km [7]: 360 ± 80 µM
Vmax [7]: 0.72 µmol/min/mg
kcat/Km [7]: 1500 M⁻¹ s⁻¹

B3: C. necator itaconate CoA transferase (Cupriavidus necator H16) (protein)
chain: MSHSPKGIRPLDGIRVVSLEHAVAAPFATRQLADLGARVIKIERPGVGDFARGYDQSVHGQASYFVWLNRGKESLTLDLKDREAQAILHRLLADADVLVQNLAPGAAVRMGLDFDSLHGKYDKLIVCDISGYGDSGPYRDKKAYDLLIQAAAGLVGLTGGPNEPSRAGVSIADISAGMYAYSGILSALLQRGRTGKGLRVQVTMLEAMAEWMNQVLYFGHYGGKPPGRFGASHPTIAPYGVHRTGNGSVIFSVQNEREFANFCEIVLGNRELAQDERFSSNTARVHNRPELTAIIEERFAPMTVAQAEALLDEAQIANAPMNDIEGVWNHPQLQARQRWREVATPGGPIGALLPPANLSGVEPVMGDVPALGAHSRQILAELGYDDGDIAALADKRTI
notes: pET16b, N-terminal His-tag, E. coli BL21(DE3), Ni-NTA purified
Km (purified protein): 42800 ± 17200 µM
Vmax (purified protein): 1.1 µmol/min/mg
kcat/Km (purified protein): 20 M⁻¹ s⁻¹
Km [8]: 4000 ± 1700 µM
Vmax [8]: 53.2 µmol/min/mg
kcat/Km [8]: 9500 M⁻¹ s⁻¹
Km [9]: 760 ± 200 µM
Vmax [9]: 116 µmol/min/mg
kcat/Km [9]: 109000 M⁻¹ s⁻¹
Km [10]: 35600 ± 3200 µM
Vmax [10]: 35.6 µmol/min/mg
kcat/Km [10]: 700 M⁻¹ s⁻¹
Km [11]: 900 ± 100 µM
Vmax [11]: 82 µmol/min/mg
kcat/Km [11]: 65200 M⁻¹ s⁻¹
Km [12]: 15600 ± 2300 µM
Vmax [12]: 10.2 µmol/min/mg
kcat/Km [12]: 500 M⁻¹ s⁻¹
Km [13]: 37400 ± 8900 µM
Vmax [13]: 3.2 µmol/min/mg
kcat/Km [13]: 60 M⁻¹ s⁻¹
